Assay [1] has as its target T1, gp7, bacteriophage T4 gene product 7 (bacteriophage T4, UniProt P19061 1-1032).
T1 construct: Expressed cell-free; also called gene-7 product
T1 sequence: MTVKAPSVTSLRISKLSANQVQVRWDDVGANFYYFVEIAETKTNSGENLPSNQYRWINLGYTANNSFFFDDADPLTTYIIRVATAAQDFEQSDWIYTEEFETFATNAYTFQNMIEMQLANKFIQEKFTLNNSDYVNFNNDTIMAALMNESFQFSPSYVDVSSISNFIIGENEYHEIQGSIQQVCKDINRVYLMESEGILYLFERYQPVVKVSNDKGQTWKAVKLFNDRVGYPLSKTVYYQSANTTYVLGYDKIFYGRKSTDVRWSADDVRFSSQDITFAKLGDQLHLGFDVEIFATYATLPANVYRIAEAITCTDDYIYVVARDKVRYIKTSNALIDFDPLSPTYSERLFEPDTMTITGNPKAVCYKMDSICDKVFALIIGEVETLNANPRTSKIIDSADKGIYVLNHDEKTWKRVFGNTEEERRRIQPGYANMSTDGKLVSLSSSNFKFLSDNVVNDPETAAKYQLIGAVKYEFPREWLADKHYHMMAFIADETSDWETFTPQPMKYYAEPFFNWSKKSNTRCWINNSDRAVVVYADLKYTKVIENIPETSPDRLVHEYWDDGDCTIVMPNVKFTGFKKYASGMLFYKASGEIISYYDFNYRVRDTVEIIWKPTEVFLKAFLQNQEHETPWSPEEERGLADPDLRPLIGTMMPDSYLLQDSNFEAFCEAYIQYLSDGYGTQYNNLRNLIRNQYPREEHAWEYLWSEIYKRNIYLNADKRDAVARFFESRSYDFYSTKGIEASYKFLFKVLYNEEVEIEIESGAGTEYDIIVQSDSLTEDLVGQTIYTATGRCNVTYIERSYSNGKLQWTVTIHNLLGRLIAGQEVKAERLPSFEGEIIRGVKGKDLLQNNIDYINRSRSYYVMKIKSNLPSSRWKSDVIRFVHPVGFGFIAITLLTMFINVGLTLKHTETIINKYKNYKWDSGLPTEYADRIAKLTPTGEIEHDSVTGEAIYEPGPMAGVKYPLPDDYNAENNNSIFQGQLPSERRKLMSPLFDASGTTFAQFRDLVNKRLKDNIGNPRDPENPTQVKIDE
Kind of assay: on-chip assemblograms in 1D compartments on gp11-HA, post-staining with gp8.

For assay [2], the target named is T2, pre-wedge, gp10-7-8 complex (bacteriophage T4) (bacteriophage T4, UniProt P10928 1-602; P19061 1-1032; P19062 1-334).
T2 construct: also called pre-wedges
In words: on-chip gene titration, yield calculated from post-staining.

The target in assay [3] is T3, gp10-7 complex (bacteriophage T4) (bacteriophage T4, UniProt P10928 1-602; P19061 1-1032).
T3 construct: also called gp10-7 complexes
In words: on-chip assemblograms in 1D compartments, post-staining.

B1: gp10, bacteriophage T4 gene product 10 (other)
chain: MKQNINIGNVVDDGTGDYLRKGGIKINENFDELYYELGDGDVPYSAGAWKTYNASSGQTLTAEWGKSYAINTSSGRVTINLPKGTVNDYNKVIRARDVFATWNVNPVTLVAASGDTIKGSAVPVEINVRFSDLELVYCAPGRWEYVKNKQIDKITSSDISNVARKEFLVEVQGQTDFLDVFRGTSYNVNNIRVKHRGNELYYGDVFSENSDFGSPGENEGELVPLDGFNIRLRQPCNIGDTVQIETFMDGVSQWRSSYTRRQIRLLDSKLTSKTSLEGSIYVTDLSTMKSIPFSAFGLIPGEPINPNSLEVRFNGILQELAGTVGMPLFHCVGADSDDEVECSVLGGTWEQSHTDYSVETDENGIPEILHFDSVFEHGDIINITWFNNDLGTLLTKDEIIDETDNLYVSQGPGVDISGDVNLTDFDKIGWPNVEAVQSYQRAFNAVSNIFDTIYPIGTIYENAVNPNNPVTYMGFGSWKLFGQGKVLVGWNEDISDPNFALNNNDLDSGGNPSHTAGGTGGSTSVTLENANLPATETDEEVLIVDENGSVIVGGCQYDPDESGPIYTKYREAKASTNSTHTPPTSITNIQPYITVYRWIRIA
notes: also called gene-10 product
For B1, the binding result in assay [1] was “binds”.

B2: gp6, bacteriophage T4 gene product 6 (other)
chain: MANTPVNYQLTRTANAIPEIFVGGTFAEIKQNLIEWLNGQNEFLDYDFEGSRLNVLCDLLAYNTLYIQQFGNAAVYESFMRTANLRSSVVQAAQDNGYLPTSKSAAQTEIMLTCTDALNRNYITIPRGTRFLAYAKDTSVNPYNFVSREDVIAIRDKNNQYFPRLKLAQGRIVRTEIIYDKLTPIIIYDKNIDRNQVKLYVDGAEWINWTRKSMVHAGSTSTIYYMRETIDGNTEFYFGEGEISVNASEGALTANYIGGLKPTQNSTIVIEYISTNGADANGAVGFSYADTLTNITVININENPNDDPDFVGADGGGDPEDIERIRELGTIKRETQQRCVTATDYDTFVSERFGSIIQAVQTFTDSTKPGYAFIAAKPKSGLYLTTVQREDIKNYLKDYNLAPITPSIISPNYLFIKTNLKVTYALNKLQESEQWLEGQIIDKIDRYYTEDVEIFNSSFAKSKMLTYVDDADHSVIGSSATIQMVREVQNFYKTPEAGIKYNNQIKDRSMESNTFSFNSGRKVVNPDTGLEEDVLYDVRIVSTDRDSKGIGKVIIGPFASGDVTENENIQPYTGNDFNKLANSDGRDKYYVIGEINYPADVIYWNIAKINLTSEKFEVQTIELYSDPTDDVIFTRDGSLIVFENDLRPQYLTIDLEPISQ
notes: Expressed cell-free; also called gene-6 product
For the molecule B2, the binding result in assay [2] is “binds”.

B3: gp8, bacteriophage T4 gene product 8 (other)
chain: MNDSSVIYRAIVTSKFRTEKMLNFYNSIGSGPDKNTIFITFGRSEPWSSNENEVGFAPPYPTDSVLGVTDMWTHMMGTVKVLPSMLDAVIPRRDWGDTRYPDPYTFRINDIVVCNSAPYNATESGAGWLVYRCLDVPDTGMCSIASLTDKDECLKLGGKWTPSARSMTPPEGRGDAEGTIEPGDGYVWEYLFEIPPDVSINRCTNEYIVVPWPEELKEDPTRWGYEDNLTWQQDDFGLIYRVKANTIRFKAYLDSVYFPEAALPGNKGFRQISIITNPLEAKAHPNDPNVKAEKDYYDPEDLMRHSGEMIYMENRPPIIMAMDQTEEINILFTF
notes: Expressed cell-free; also called gene-8 product
As for B3, the binding result in assay [3] is reported as “binds”.

Values taken from patent US20220213467A1 (YEDA RESEARCH AND DEVELOPMENT, published 2022).
